Experimental data published in US20100143371A1 (published 2010).

T1: endogenous Etk of NSR cells (mouse, UniProt P97504 1-651)
T1 sequence (looked up): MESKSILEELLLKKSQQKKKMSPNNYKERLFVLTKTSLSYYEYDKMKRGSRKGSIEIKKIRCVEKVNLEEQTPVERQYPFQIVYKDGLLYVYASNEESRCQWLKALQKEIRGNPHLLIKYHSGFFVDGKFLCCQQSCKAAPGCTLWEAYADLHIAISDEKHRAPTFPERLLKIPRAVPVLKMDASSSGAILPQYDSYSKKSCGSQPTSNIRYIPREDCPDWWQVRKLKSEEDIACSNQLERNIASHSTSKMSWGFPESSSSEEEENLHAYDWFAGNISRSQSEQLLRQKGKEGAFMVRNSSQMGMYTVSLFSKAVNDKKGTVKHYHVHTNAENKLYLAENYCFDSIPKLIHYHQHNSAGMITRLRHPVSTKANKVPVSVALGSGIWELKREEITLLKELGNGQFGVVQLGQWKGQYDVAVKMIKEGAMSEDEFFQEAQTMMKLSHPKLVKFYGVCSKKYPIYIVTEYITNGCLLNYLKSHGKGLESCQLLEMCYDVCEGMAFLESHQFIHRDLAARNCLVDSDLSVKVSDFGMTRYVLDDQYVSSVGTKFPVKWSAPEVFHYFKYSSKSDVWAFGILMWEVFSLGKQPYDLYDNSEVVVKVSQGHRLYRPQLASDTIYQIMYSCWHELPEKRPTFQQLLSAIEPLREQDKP


Legend:
GST-Etk kinase domain [1] = biological target: T2, GST-Etk kinase domain (human, UniProt P51813 417-675); assay: ELISA, purified domain antibody on immobilised GST-Etk, anti-Myc-HRP detection
T2 construct: Soluble fusion protein expressed in SF21 cells by baculovirus, purified on glutathione beads; also called recombinant Etk; not shown: Glutathione-S-transferase (GST) fusion partner of the pBac vector (Pharmingen)
Experimental: Quantitative Etk binding assay. Various concentrations of purified domain antibodies were added into a Maxi-sorp 96 well microtiter plate coated with 100 μl/well of 1 μg/ml GST-Etk and incubated for 1 h at RT. The plate was washed 3 times with PBST and then incubated with 100 μl/well of anti-Myc-HRP conjugate (1:5000 dilution) for 1 h at RT. The plate was washed 5 times, TMB peroxidase substrate was added and the absorbance at 450 nm was measured.
The antibody concentration required for 50% of maximum binding to Etk was 5 nM and 8 nM for L9 and L11, respectively, and approximately 20 nM for L5, L7, L12 and L15. […] Consistent with the binding data, all 6 domain antibodies blocked Etk enzymatic activity dose-dependently, as indicated by the reduction in the ability of recombinant Etk to phosphorylate the substrate, polyEY, in the presence of the domain antibodies (FIG. 2C).

GST-Etk kinase domain [2] = biological target: T2, GST-Etk kinase domain; assay: cell-based or functional assay
[3] = biological target: T1, endogenous Etk of NSR cells; assay: cell-based or functional assay
[4] = biological target: T1, endogenous Etk of NSR cells; assay: co-immunoprecipitation from NSR cell lysate (protein L or anti-Etk), western blot
Experimental: Western immunoblotting and immunoprecipitation. Cells from a 150 mm dish were harvested in 1 ml lysis buffer containing 25 mM Tris-HCl pH 7.4, 2 mM sodium orthovanadate, 0.5 mM EDTA, 10 mM NaF, 10 mM sodium pyrophosphate, 25 mM NaCl and 1% Tx-100 supplemented with 1:1000 dilution of protease inhibitor cocktail. Cells were frozen and thawed twice, centrifuged and supernatant was collected. Samples of 50 μg protein extract were resolved by SDS-PAGE under reducing conditions, and transferred onto nitrocellulose membrane for western immunoblotting with the indicated antibodies. For immunoprecipitation, 0.5 mg of protein extracts were incubated with either protein L beads or anti-Etk antibodies coupled to protein A bead overnight at 4° C. The immunocomplex was washed 4 times with PBST and twice with 50 mM Hepes, pH 7.5, electrophored on an SDS-polyacrylamide gel under reducing conditions, and transferred onto nitrocellulose membrane for western immunoblotting with the indicated antibodies. In addition, the immunocomplex was also used as the source for enzyme (Etk kinase) in the in vitro kinase activity and autophosphorylation assays described below.
This was further confirmed when the cell lysate was immunoprecipitated with an anti-Etk antibody followed by blotting with an anti-c-Myc antibodies (FIG. 3C).

T2 sequence (P51813 417-675): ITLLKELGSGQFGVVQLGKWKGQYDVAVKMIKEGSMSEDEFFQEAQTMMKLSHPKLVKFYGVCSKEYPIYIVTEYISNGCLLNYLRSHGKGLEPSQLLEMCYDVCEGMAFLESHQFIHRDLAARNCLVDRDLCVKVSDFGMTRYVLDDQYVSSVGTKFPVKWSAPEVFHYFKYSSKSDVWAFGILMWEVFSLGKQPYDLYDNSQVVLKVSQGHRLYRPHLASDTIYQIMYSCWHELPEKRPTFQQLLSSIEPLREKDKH

| Binder | EC50 (GST-Etk kinase domain [1]) [µM] | domain antibody concentration required to achieve 50% inhibition of Etk kinase activity (polyEY substrate, ELISA-based in vitro kinase assay) (GST-Etk kinase domain [2]) [nM] | in vitro autophosphorylation of immunoprecipitated Etk, percent of the wild-type enzyme (from NSR cells) activity retained [3] [%] | in vitro kinase assay of Etk/intrabody immunocomplexes on polyEY, percent of activity of Etk derived from NSR cells [3] [%] | binding result [4] |
| --- | --- | --- | --- | --- | --- |
| L5 soluble single domain antibody (antibody, V domains shown, Single human kappa light chain variable domain (domain antibody), expressed from pDOM5 in E. coli BL21, purified on protein L, about 15 kDa; the tie to L5 rests on the order of the list and the numbering (CDRs 4, 6, 8 follow 2); not shown: c-Myc tag (detected with anti-Myc-HRP)) VL: DIQMTQSPSSLSASVGDRVTITCRASQGIKMKLNWYQQKPGKAPKLLIYNTSHLQSGVPSRFSGSGSGTDFTLTISSLQPEDFATYYCQQHKTRPDTFGQGTKVEIKR | ~0.02 | ~20 |  |  |  |
| K5 intrabody (L5 expressed from pcDNA3.1-L5 in NSR cells) (antibody, V domains shown, not shown: small tags and cut ends) VL: DIQMTQSPSSLSASVGDRVTITCRASQGIKMKLNWYQQKPGKAPKLLIYNTSHLQSGVPSRFSGSGSGTDFTLTISSLQPEDFATYYCQQHKTRPDTFGQGTKVEIKR |  |  | ~49 | ~25 |  |
| L15 soluble single domain antibody (antibody, V domains shown, Single human kappa light chain variable domain, from pDOM5 in E. coli BL21, protein L purified; not shown: c-Myc tag (detected with anti-Myc-HRP)) VL: DIQMTQSPSSLSASVGDRVTITCRASQNIKTKLNWYQQKPGKAPKLLIYRVSTLQSGVPSRFSGSGSGTDFTLTISSLQPEDFATYYCQQTKKRPFTFGQGTKVEIER | ~0.02 |  |  |  |  |
| K15 intrabody (L15 expressed from pcDNA3.1-L15 in NSR cells) (antibody, V domains shown, band of 12 kDa; not shown: c-Myc tag (detected with anti-c-Myc antibody)) VL: DIQMTQSPSSLSASVGDRVTITCRASQNIKTKLNWYQQKPGKAPKLLIYRVSTLQSGVPSRFSGSGSGTDFTLTISSLQPEDFATYYCQQTKKRPFTFGQGTKVEIER |  |  |  |  | no binding |
| K7 intrabody (L7 expressed from pcDNA3.1-L7 in NSR cells) (antibody, V domains shown, not shown: small tags and cut ends) VL: DIQMTQSPSSLSASVGDRVTITCRASQRIFTRLEWYQQKPGKAPMLLIYNVSHLQSGVPSRFSGSGSGTDFTLTISSLQPEDFATYYCQQTEIIPITFGQGTKVEIKQ |  |  | ~37 | ~25 |  |
| L11 soluble single domain antibody (antibody, V domains shown, Tie to L11 rests on list order and numbering; not shown: c-Myc tag (detected with anti-Myc-HRP)) VL: DIQMTQSPSSLSASVGDRVTITCRASQWIFTELAWYQQKPGKAPKLLIYNASYLQSGVPSRFSGSGSGTDFTLTISSLQPEDFATYYCQQTFTPPITFGQGTKVEIKR | 0.008 | ~40 |  |  |  |
| L12 soluble single domain antibody (antibody, V domains shown, Single human kappa light chain variable domain, from pDOM5 in E. coli BL21, protein L purified; not shown: c-Myc tag (detected with anti-Myc-HRP)) VL: DIQMTQSPSSLSASVGDRVTITCRASQWIFDRLHWYQQKPGKAPTLLIYNSSTLQSGVPSRFSGSGSGTDFTLTISSLQPEDFATYYCQQTKSRPSTFGQGTKVEIKR | ~0.02 | ~20 |  |  |  |

The remaining lines, values ahead:

| EC50 (GST-Etk kinase domain [1]) [µM] | domain antibody concentration required to achieve 50% inhibition of Etk kinase activity (polyEY substrate, ELISA-based in vitro kinase assay) (GST-Etk kinase domain [2]) [nM] | in vitro autophosphorylation of immunoprecipitated Etk, percent of the wild-type enzyme (from NSR cells) activity retained [3] [%] | in vitro kinase assay of Etk/intrabody immunocomplexes on polyEY, percent of activity of Etk derived from NSR cells [3] [%] | binding result [4] | Binder |
| --- | --- | --- | --- | --- | --- |
|  |  | ~38 | ~25 |  | K9 intrabody (L9 expressed from pcDNA3.1-L9 in NSR cells) (antibody, V domains shown, not shown: small tags and cut ends) VL: DIQMTQSPSSLSASVGDRVTITCRASQAIKNKLGWYQQKPGKAPKLLIYKASYLQSGVPSRFSGSGSGTDFTLTISSLQPEDFATYYCQQMKSRPNTFGQGTKVEIKR |
| 0.005 | ~20 |  |  |  | L9 soluble single domain antibody (antibody, V domains shown, Single human kappa light chain variable domain, from pDOM5 in E. coli BL21, protein L purified; not shown: c-Myc tag (detected with anti-Myc-HRP)) VL: DIQMTQSPSSLSASVGDRVTITCRASQAIKNKLGWYQQKPGKAPKLLIYKASYLQSGVPSRFSGSGSGTDFTLTISSLQPEDFATYYCQQMKSRPNTFGQGTKVEIKR |
| ~0.02 | ~20 |  |  |  | L7 soluble single domain antibody (antibody, V domains shown, Single human kappa light chain variable domain, from pDOM5 in E. coli BL21, protein L purified; not shown: c-Myc tag (detected with anti-Myc-HRP)) VL: DIQMTQSPSSLSASVGDRVTITCRASQRIFTRLEWYQQKPGKAPMLLIYNVSHLQSGVPSRFSGSGSGTDFTLTISSLQPEDFATYYCQQTEIIPITFGQGTKVEIKQ |
|  |  | ~30 | ~25 |  | K11 intrabody (L11 expressed from pcDNA3.1-L11 in NSR cells) (antibody, V domains shown, not shown: small tags and cut ends) VL: DIQMTQSPSSLSASVGDRVTITCRASQWIFTELAWYQQKPGKAPKLLIYNASYLQSGVPSRFSGSGSGTDFTLTISSLQPEDFATYYCQQTFTPPITFGQGTKVEIKR |
